Experimental data reported in the supplement of paper PMC10126150.
± gives the standard deviation of the averaged measurements.

System: ATP
Test: switch fluorescence ratio, 500 uM ATP over buffer (Cy3 cluster intensity, sum of 5 cycles each) (fold (ratio)); higher = stronger signal-on switching upon ATP binding; sequences stand for … in TCGTCGGCAGCGTCAGATGTGTATAAGAGACAGTTTTTTTTTTTTTTTTTTTTTTTTT…TC
Settings: aptamer strand: ATP DNA aptamer (quencher-CACCTGGGGGAGTATTGCGGAGGAAGG + anchor), 100 nM annealed; ATP concentration: 500 uM
How it was run: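 Clusters with intensities outside 100-1000 RFU were excluded. The remaining Cy3-labelled switching-strand clusters on a modified Illumina MiSeq flow-cell had been annealed to 100 nM quencher-labelled ATP aptamer and imaged in selection buffer, then after 15 min with 500 uM ATP at 22 °C, for five cycles separated by NaOH stripping and re-annealing. The fluorescence ratio, averaged per switch-domain sequence, is each cluster's summed target-cycle Cy3 intensity over its summed buffer-cycle Cy3 intensity.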
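Note: ATP exposure 15 min at 22 °C before imaging.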

Point of comparison: CTAGATGTAT, switch fluorescence ratio 0.985 ± 0.017. Against it:
- GTAAAAATTG — within error, 0.986 ± 0.028
- GACACCATTC — higher, 1.13 ± 0.017
- TTATTGCTTA — within error, 0.97037 ± 0.00059
- CGGAGTACGG — within error, 1.06 ± 0.075
- TAGAGACCTG — within error, 1 ± 0.071
- TTCCCGTGCT — higher, 1.022 ± 0.0076
- TGAAGTCGGT — within error, 0.9681 ± 0.0066
- AAGCAGATAG — higher, 1.46 ± 0.048
- TCATGAGTTG — within error, 0.963 ± 0.018
- GGGAAGCGTT — within error, 0.997 ± 0.012
- AATGGCGGGT — within error, 0.996 ± 0.034
- CAGATCTGAA — within error, 0.952 ± 0.07
- GCTGACGGGT — within error, 0.976 ± 0.018
- TACGGGACTT — higher, 1.26 ± 0.033
- AAAGGGATAG — within error, 1.01 ± 0.038
- CGGTTTATAA — within error, 0.981 ± 0.013
- ATTTTAGGTC — within error, 0.989 ± 0.025
- CGTTGCGAGT — within error, 0.9726 ± 0.009
- CGGCGCTTCA — higher, 1.063 ± 0.0061
- CGGGATCCAC — within error, 1.01 ± 0.034
- TATTTAGGGC — within error, 1.04 ± 0.052
- TGGTGTATTT — within error, 1.01 ± 0.011
- AATGGGTTCT — within error, 0.998 ± 0.079
- ATCGTTCGCG — within error, 0.996 ± 0.016
- TTAGTATTAC — higher, 1.05 ± 0.029
- AGAGGGGCGT — within error, 0.999 ± 0.033
- ATAGGAGGTC — within error, 1.01 ± 0.013
- CTGAATGGGT — within error, 0.998 ± 0.016
- AAGAGCCAAA — within error, 0.9735 ± 0.0097
- ACGGTCGCGT — within error, 1 ± 0.012
- GGTTTAGGAC — within error, 0.971 ± 0.016
- CAATAGCTAT — higher, 1.06 ± 0.022
- AAGTTGGGCA — within error, 0.969 ± 0.039
- GTAGGGGGAG — within error, 0.9884 ± 0.004
- CGACCTTGCT — higher, 1.55 ± 0.26
- TCATTATGCA — higher, 1.04 ± 0.018
- AGACTTTAAA — within error, 1.01 ± 0.019
- TGTAATTTGT — within error, 1 ± 0.027
- CTGGGAATTG — higher, 1.05 ± 0.043
- GCTGGGTCGA — higher, 1.03 ± 0.01
- CCAGAGGAGG — within error, 1.01 ± 0.076
- GCGCTTGTTG — within error, 0.998 ± 0.013
- TTTTAGGGTT — within error, 1.01 ± 0.027
- TTTTGGGTCG — higher, 1.03 ± 0.025
- CTATTATGTT — within error, 1 ± 0.019
- TGCTTCGACG — within error, 0.9996 ± 0.0012
- CAGTCTTTTA — within error, 0.957 ± 0.035
- GATCTTTCCG — higher, 1.08 ± 0.059
- CTCGATAAAA — within error, 0.975 ± 0.022
- GGCCCTGGGA — within error, 1.02 ± 0.029
- ACAGAGGGTT — within error, 1.03 ± 0.045
- GGTATTGTTT — within error, 0.9881 ± 0.0066
- ATTTTGGATG — within error, 0.996 ± 0.025
- GTTAAAGGGC — within error, 1.03 ± 0.034
- TAACTGACGG — higher, 1.268 ± 0.012
- AGGGCGTGGC — within error, 0.9876 ± 0.0018
- TTTGGCAATT — higher, 1.73 ± 0.57
- TTGCTATCAG — within error, 1 ± 0.047
- GCTAAATTAT — within error, 0.963 ± 0.021
- CGATCAAAAC — within error, 1.26 ± 0.31
- TGTATTTTGG — within error, 0.984 ± 0.029
- CACGGACCTA — higher, 1.363 ± 0.012
- TCGCTATAGC — within error, 1.02 ± 0.067
- TCGAGGGGTC — within error, 1.06 ± 0.075
- CCGCGAGGGT — higher, 1.57 ± 0.29
- TAATGGGATA — within error, 1.02 ± 0.055
- GGTGTTTTTG — within error, 1.05 ± 0.054
- GGAAATTGTG — within error, 1.04 ± 0.052
- AAAAAATTGG — within error, 0.989 ± 0.035
- GGGGGGCGGA — within error, 1.01 ± 0.039
- GGACGGGGAT — within error, 1 ± 0.015
- CCTGGAAATT — within error, 1.02 ± 0.023
- ATAGCAAAAT — within error, 1.07 ± 0.13
- AAGGGAGGAA — higher, 1.02 ± 0.012
- AATAGAGGGA — within error, 0.977 ± 0.045
- CGACTTGGTA — within error, 0.9766 ± 0.0011
- TAAGGGGGTT — within error, 1.01 ± 0.036
- CAAAGAAAGG — within error, 0.95 ± 0.021
- ATAGGGGTGT — within error, 1.01 ± 0.062
- TGATACACGT — within error, 1 ± 0.013
- ATATCACGCT — higher, 1.03 ± 0.023
- AAAACGTAAC — higher, 1.25 ± 0.1
- CGGCTTATGG — within error, 1.03 ± 0.07
- TTCAGTAAGA — within error, 1 ± 0.04
- TATTAGTATG — within error, 0.991 ± 0.047
- AGAGGAGCGG — higher, 1.02 ± 0.013
- GGAATCTGCC — higher, 1.14 ± 0.024
- CCTGAAAGGT — within error, 1.003 ± 0.0079
- TAATTCTTTT — within error, 0.986 ± 0.029
- ATGGAAGCTA — higher, 1.02 ± 0.013
- TGGGGGAACA — within error, 0.989 ± 0.018
- AGATTTTTTA — within error, 0.954 ± 0.016
- AGTTACATTG — within error, 1.02 ± 0.041
- AGCCTCGTGG — within error, 0.992 ± 0.019
- TTTCATCCAA — within error, 1.42 ± 0.48
- GGTGTATTTA — higher, 1.02 ± 0.017
- ATGTGTGGTT — within error, 1.12 ± 0.15
- TAATGGGTGC — higher, 1.06 ± 0.038
- TGGGCAGAAG — within error, 0.9744 ± 0.0053
- GTGGGTCATA — within error, 0.953 ± 0.099
- AGAAACGTAT — higher, 1.13 ± 0.013
- ATCGATTTCG — within error, 0.975 ± 0.017
- TGGGGATCTA — within error, 1.002 ± 0.006
- GTAATGAGGT — within error, 1.01 ± 0.024
- AGGGCTGACG — within error, 1.02 ± 0.024
- CTATTTGGCA — higher, 1.0113 ± 4.2e-05
- TTTTGGGATG — within error, 0.978 ± 0.033
- CAAAAGATGT — within error, 1.01 ± 0.05
- TCGGGGCGAA — within error, 1.85 ± 1.3
- CGGTTAGTTT — within error, 0.97 ± 0.034
- TTTTGGTAGC — within error, 1.01 ± 0.017
- GGGGGTTCGG — within error, 0.992 ± 0.021
- CATTAAGGCT — within error, 1.01 ± 0.071
- ATTTTAAACG — within error, 0.979 ± 0.021
- GTGGTCCGTG — within error, 0.962 ± 0.0097
- GCTATTAAAG — within error, 1 ± 0.026
- TGGCTAGATA — within error, 0.973 ± 0.041
- CATGTGGGTA — within error, 0.981 ± 0.053
- CGCTTTCACC — higher, 1.218 ± 0.0019
- AGCGTATTGG — within error, 0.998 ± 0.035
- ATCATTGGTT — within error, 1.01 ± 0.015
- TTTTTTAATA — within error, 1 ± 0.036
- TCGAAATCAC — higher, 1.32 ± 0.046
- GCTTCCGAGA — higher, 1.87 ± 0.05
- GCTGTAGGAG — within error, 0.9843 ± 0.0072
- AATAAGGTTA — within error, 0.984 ± 0.022
- TATATGTGTG — within error, 0.9661 ± 0.0073
- GGCTATTTTC — within error, 0.991 ± 0.051
- AAGAGGGGG — within error, 0.977 ± 0.026
- TATTTCTGCT — higher, 1.04 ± 0.033
- CTTAATAGAC — within error, 2.44 ± 1.9
- TCAATTCGGC — within error, 0.991 ± 0.025
- TATAATGTTT — within error, 1.02 ± 0.048
- GAGGTTGG — higher, 1.02 ± 0.017
- TAGTGATTAA — within error, 1.02 ± 0.044
- TAGAGATGGG — within error, 1.02 ± 0.028
- AGGGAAGTTT — within error, 1.03 ± 0.084
- AACGACACAT — higher, 1.46 ± 0.014
- AAGATTAGTC — within error, 0.974 ± 0.041
- TTACCGGGGG — higher, 1.042 ± 0.0095
- ATGATTGTCG — within error, 0.994 ± 0.017
- TCTTATGGCC — within error, 0.975 ± 0.018
- CAATTTTTAG — within error, 1.01 ± 0.023
- AAATTGGGGA — within error, 0.986 ± 0.014
- CATTTAATTC — higher, 1.04 ± 0.014
- CAGGTAAATT — within error, 0.975 ± 0.03
- GGACGGGTGT — within error, 0.996 ± 0.011
- GTAGGTAGCG — within error, 0.984 ± 0.031
- AGTCATCTGC — within error, 1 ± 0.013
- GGGGGAGTTT — within error, 1.01 ± 0.011
- TGTGGAAGGA — within error, 0.9862 ± 0.0039
- AAAACTATTT — within error, 0.9865 ± 0.0064
- GGAGTGTGTG — within error, 0.96 ± 0.044
- TTTATTTTAA — within error, 0.995 ± 0.028
- TCTGAGGTTT — higher, 1.04 ± 0.029
- CGACCATAGA — higher, 1.07 ± 0.045
- TAAGAAAGGT — within error, 1 ± 0.0053
- TCGACGCGCC — higher, 5.12 ± 0.52
- TGGTAATTTT — within error, 0.998 ± 0.017
- CTGGAGGGGA — higher, 1.04 ± 0.034
- GGTGTCGGGA — within error, 0.9705 ± 0.009
- TGTTTGGGTT — within error, 0.978 ± 0.012
- GTGATTTTCT — within error, 0.998 ± 0.015
- TTTTTGGGTC — within error, 1.03 ± 0.12
- TACGACCGTG — within error, 1.01 ± 0.046
- GTTGGTCGGG — within error, 1.02 ± 0.037
- TGTCGTGGGA — within error, 1.01 ± 0.038
- TGGGTATCGG — within error, 0.994 ± 0.021
- TGGGTAATGT — within error, 1.01 ± 0.023
- AAACCTTGCA — higher, 1.92 ± 0.15
- TATAGGTCGG — within error, 0.9695 ± 0.0057
- GTCGGTAGGT — within error, 1 ± 0.032
- TAGGGCCTTT — within error, 0.986 ± 0.023
- GCGACCCTTT — higher, 1.118 ± 0.0042
- GAATCATAGA — within error, 1.004 ± 0.0094
- AGACGGTAGC — within error, 1.01 ± 0.026
- AAATAGAAGA — within error, 1.03 ± 0.038
- CGTTTGAAGC — within error, 0.978 ± 0.059
- ATCTAAGGTT — within error, 1.01 ± 0.025
- CGCAACTATG — higher, 1.56 ± 0.026
- AGTAGGTG — higher, 1.05 ± 0.04
- TGGATAATTT — within error, 0.9962 ± 0.0084
- ATGAGGATGT — within error, 1 ± 0.019
- AGTACGGGGT — within error, 0.982 ± 0.031
- TGCACATTCC — higher, 1.7 ± 0.15
- TCTGAAACCG — higher, 1.18 ± 0.12
- ATAAATGATA — within error, 1 ± 0.049
- GATGTATGGG — within error, 0.984 ± 0.015
- ATTAGTTTTT — within error, 0.9731 ± 0.0076
- CGTCTTGGAA — within error, 1.01 ± 0.013
- GGCTGGCGGC — within error, 0.984 ± 0.026
- TTTGTTAGCG — within error, 1.01 ± 0.053
- CGCTGGAGGG — within error, 1.02 ± 0.093
- GCAGTGGGGG — within error, 1 ± 0.08
- GAACGTGGTA — within error, 0.9936 ± 0.0038
- TGCTACCGGG — higher, 1.058 ± 0.0016
- GGCCGTGTGG — within error, 0.998 ± 0.023
- ACAGTCTATT — within error, 1.02 ± 0.043
- TACGCAGTAT — higher, 1.15 ± 0.061
